Assay results from patent publication US20260231968A1, “AN ECO-FRIENDLY, SUSTAINABLE FOOD PRESERVATIVE” (priority 2023, published 2026).

Columns and labels:
[1] = system: microbial growth in bread/rolls; assay: Microbial growth in baked bread/rolls stored at room temperature; format: cell-based; details: 0.3% psoriasin admixed with dough before baking, after 10 days at room temperature
Description: Bread or roll dough prepared with 150 ml PBS, 0.3% psoriasin, (1.5 g protein in 150 ml DDW) or 0.3% calcium propionate (1.5 g calcium propionate in 150 ml DDW) was baked in a bread maker according to the manufacturer protocol using the following recipe: 180 ml water (or 150 ml PBS+30 ml water), 1 teaspoon of salt, 2 spoons of sugar, 2 spoons of oil, 300 g of flour, and 1 teaspoon of yeast. Following baking, the bread was sliced, each slice/roll was weighed and kept in a separate small smasher bag until analysis.
Bread/rolls were stored at room temperature. Each day, a roll/slice of bread from each group was mixed with autoclaved 1×PBS at a weight ratio of 1:10 to the weighted piece of bread in the bag. The bread was then smashed in a smasher at normal speed for 120 seconds. 10 mL from the smashed bread was removed, vortexed, and diluted with autoclaved 1×PBS as necessary. Samples were plated on both PDA and LB plates and incubated at 30° C. and 37° C., respectively. All samples were performed in duplicate.

[2] = system: 3T3 cells; assay: Cell viability assay based on luminescence (cell-titer kit); details: 2-74 μM, 24 h
Description: To assess any potential deleterious effects of psoriasin, such as cytotoxicity, a cell viability assay was performed based on luminescence, in which decreased luminescence is indicative of reduced cell viability. Various concentrations of psoriasin ranging from 2-74 μM, were tested on 3T3 cells. Approximately 5000 cells were plated in each well of a 96 well-plate and following overnight incubation, psoriasin was added in the indicated concentration within the medium to the cells (performed in triplicate). Luminescence values were recorded after an additional 24 h using the cell-titer kit (Promega Ltd.) in a BioTek Synergy plate reader.

[3] = system: C. albicans; assay: Anti-fungal activity after lyophilization or oven drying; format: cell-based, Candida albicans
Description: The activity of psoriasin was assessed following lyophilization and oven drying. […] In particular, psoriasin was lyophilized and then tested for antimicrobial activity against C. albicans at concentrations of 0.5, 0.25, and 0.125 μM compared with psoriasin that had not been lyophilized.
In another experiment, psoriasin was oven-dried at 50° C. for 24 hours. Subsequently, psoriasin was tested for antimicrobial activity against C. albicans at concentrations of 0.5, 0.25, 0.125, 0.0625 μM compared with psoriasin that was not dried.

B1: psoriasin: Recombinant human psoriasin (S100a7) containing a histidine tag, amino acid sequence SEQ ID NO: 11, expression vector pET-28a (protein, listed as Homo sapiens)
chain: MSNTQAERSIIGMIDMFHKYTRRDDKIEKPSLLTMMKENFPNFLSACDKKGTNYLADVFEKKDKNEDKKIDFSEFLSLLGDIATDYHKQSHGAAPCSGGSQ
microbial growth in rolls [1]: no microbial growth was detected | cell viability (luminescence) [2]: No change in luminescence was detected | activity against C. albicans after lyophilization vs not lyophilized ([3]; 0.5, 0.25 and 0.125 μM): showed the same activity | activity against C. albicans after oven drying vs not dried ([3]; oven-dried at 50° C for 24 hours, 0.5, 0.25, 0.125, 0.0625 μM): showed the same activity
